US8962697

Experiments:
[1] = system: T1, LAR-7022
T1 sequence: ADDIGTSRPQE

[2] = system: T2, LAR-7047
T2 sequence: VFFRRQTA

[3] = system: T3, LAR-7048
T3 sequence: PRRICV

Staphopain A and Staphopain B
hydrolysis of the peptide substrate, fragments by mass spectrometry [1]: Degradation of LAR-7022 (b-ADDIG-TSRPQE): 1188.56 amu produced specific fragment pick: 717.37 corresponding to TSRPQE sequence
degradation of the control peptide [2]: No degradation was observed in these systems
degradation of the control peptide [3]: No degradation was observed in these systems
